Results published in patent publication US20170035903A1 (GAMAMABS PHARMA, published 2017).

T1: human anti-Müllerian hormone type II receptor (AMHR-II) on COV434 cells (human, UniProt Q16671 18-573)
T1 construct: Receptor at the surface of the COV434 AMHR-II transfected line (about 20000 receptors) or the COV434 WT line (about 2000 receptors); also called AMHR2; AMHR-II surface receptor
T1 sequence: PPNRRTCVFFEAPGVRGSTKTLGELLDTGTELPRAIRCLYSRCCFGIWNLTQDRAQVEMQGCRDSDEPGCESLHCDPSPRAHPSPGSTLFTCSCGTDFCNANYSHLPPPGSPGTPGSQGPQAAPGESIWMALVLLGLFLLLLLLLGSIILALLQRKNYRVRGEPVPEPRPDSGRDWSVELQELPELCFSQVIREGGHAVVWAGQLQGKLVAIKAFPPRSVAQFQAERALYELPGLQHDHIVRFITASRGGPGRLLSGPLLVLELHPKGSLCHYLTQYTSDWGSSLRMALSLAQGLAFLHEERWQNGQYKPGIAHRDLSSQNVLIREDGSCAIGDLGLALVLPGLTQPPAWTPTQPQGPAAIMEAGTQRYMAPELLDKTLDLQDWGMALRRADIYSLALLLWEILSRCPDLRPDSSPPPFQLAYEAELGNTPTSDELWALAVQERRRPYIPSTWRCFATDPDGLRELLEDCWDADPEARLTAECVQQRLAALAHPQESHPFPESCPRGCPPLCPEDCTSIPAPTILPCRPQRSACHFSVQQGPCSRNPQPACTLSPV


Tests used:
[1] = biological target: T2, AMHR-II-ECD-Fc (R&D System) (human, UniProt Q16671 18-149); assay: SPR (Bia3000), AMHR-II-ECD-Fc immobilised on CM5, antibody injected, Langmuir 1:1 fit
T2 construct: Bought construct; also called recombinant AMHR-II; AMHR-II recombinant protein; not shown: Fc part of the bought AMHR-II-ECD-Fc (R&D System)
Method: (§1) Immobilization of AMHRII was performed on a Bia3000 apparatus at 25° C. in HBS-EP (HEPES 10 mM, NaCl 150 mM, EDTA 3 mM, P20 surfactant 0.005%) at […] flow rate on CM5 sensor chip using EDC/NHS (1-Ethyl-3-3-dimethylaminopropyl carbodiimidehydrochloride) activation according to the manufacturer's instructions (GEHealthcare). Briefly, carboxyl functions of CM5 sensor chip were activated with 0.4M EDC/0.1M NHS during 7 min. A solution of AMHR-II-ECD-Fc (R&D System) at 2.5 μg/ml in sodium acetate buffer was injected during 12 min. An injection of 1M ethanolamine hydrochloride was used to neutralize the activation. […] A control reference surface was prepared using the same chemical treatment of without injection of AMHRII.
(§2) Antibodies at different concentrations (from 0.5 nM to 133 nM) were injected during 180s on AMHRII-coated flowcell and the control flowcell. After a dissociation step of 400s in running buffer, sensor surfaces were regenerated using 5 μl of Glycine-HCl pH1.7. All the sensorgrams were corrected by subtracting the low signal from the control reference surface. Kinetic parameters were evaluated from the sensorgrams using a Langmuir 1:1 fitting model on the BiaEvaluation 4.2 software.

[2] = biological target: T2, AMHR-II-ECD-Fc (R&D System); assay: SPR (Bia3000), AMHR-II-ECD-Fc immobilised; against parental murine 12G4
Method: as §1, §2

[3] = biological target: T1, human anti-Müllerian hormone type II …; assay: flow cytometry on COV434 WT cells, antibody at 10 µg/ml
Method: B) FACS histogram profiles of COV434WT staining at 10 μg/ml of antibodies. C) Percentage of COV434 WT cell staining with the antibodies.
(§3) The COV434 AMHR-II transfected and the COV434 WT cell lines were maintained in DMEM/GlutaMax (Gibco) supplemented with 10% FBS, penicillin 100 U/ml and Streptomycin 100 μg/ml. Geneticin at 666 μg/ml was added for the COV434 AMHR-II transfected cell line. […] After washes, Phycoerythrin-conjugated anti-human IgG antibody (1:200, Beckman-Coulter) was added for 1 hour at room temperature. FACS analysis of the resuspended cells was done on a BD Accuri™ C6 flow cytometer (BD Bioscience).
(§4) FACS analysis with COV434-AMHR-II transfected cell line is described in FIG. 16. […] The binding capacity of these variants was also assayed on the low expressing AMHR-II COV434 WT cell line.

[4] = biological target: T2, AMHR-II-ECD-Fc (R&D System); assay: ELISA, 50 ng per well AMHR-II-ECD-Fc coated, HRP anti-human F(ab')2 detection
Method: ELISA plates (96 wells, Maxisorp, NUnc) were coated overnight at +4° C. with 50 ng per well of AMHR-II-ECD-Fc (R&D System). Coated ELISA plates were blocked with PBS-BSA 4% for 2 hours at 37° C. and washed three times with PBS-Tween20 0.05%. […] The bound anti-AMHR-II antibodies were detected by adding HRP-conjugated F(ab′)2 goat anti-human F(ab′2) fragment specific (Interchim) diluted at 1:10000 and incubated for one hour at 37° C. Revelation was done with TMB (Sigma) and the reaction was stopped by adding H2SO4 1N (v:v). Absorbances were measured at 450 nm and binding data curves were analysis using GraphPad Prism.

[5] = biological target: T1, human anti-Müllerian hormone type II …; assay: flow cytometry on COV434 AMHR-II transfected cells, Hill slope fit
Method: (§5) Binding was determined by FACS analysis in the range of concentrations 0.034 to 8 μg/ml. Binding data curves were analyzed used specific binding with Hill slope equation from GraphPad Prism.
as §3, §4

[6] = biological target: T1, human anti-Müllerian hormone type II …; assay: flow cytometry on COV434 AMHR2 transfected cells, 0.034 to 8 µg/ml
Method: as §5, §3, §4

[7] = biological target: T1, human anti-Müllerian hormone type II …; assay: flow cytometry on COV434 AMHR-II transfected cells
Method: as §5, §3, §4

Binder	Ka [1] [M⁻¹]	Kd [1] [pM]	koff [1] [s⁻¹]	kon [1] [M⁻¹ s⁻¹]	fold higher association rate against 12G4 [2] [fold]	fold lower dissociation rate against 12G4 [2] [fold]	percent of COV434 WT cells stained [3] [%]	EC50 [4] [pM]	Kapparent [5] [µg/mL]	fold affinity improvement against 3C23K [6] [fold]	fold improvement of Kapparent against 3C23K [7] [fold]
murine 12G4 antibody (antibody, from another filing, V domains shown) VH: QVQLQQSGPELVKPGASVRMSCKASGYTFTSYHIHWVKQRPGQGLEWIGWIYPGDDSTKYNEKFKGKTTLTADKSSSTAYMLLSSLTSEDSAIYFCTRGDRFAYWGQGTLVTVSA VL: QIVLTQSPAIMSASLGEGITLTCSASSSVRYIHWYQQKSGTSPKLLIYSTSNLASGVPSRFSGSGSGTFHSLTISSVEAEDAADYYCLQWSSYPWTFGGGTKLEIK	1.27e+09	788	2.28e-05	28900	–	–	–	–	–	–	–
humanized low fucose 3C23K antibody (antibody, human IgG1, kappa, V domains shown, Humanized from murine 12G4, low fucose, prepared as in WO2011/141653A1; also called unconjugated 3C23K; 3C23K unconjugated; copies: 2 + 2) VH: QVRLVQSGAEVKKPGASVKVSCKASGYTFTSYHIHWVRQAPGQRLEWMGWIYPGDDSTKYSQKFQGRVTITRDTSASTAYMELSSLRSEDTAVYYCTRGDRFAYWGQGTLVTVSS VL: DIQMTQSPSTLSASVGDRVTITCRASSSVRYIAWYQQKPGKAPKLLTYPTSSLKSGVPSRFSGSGSGTEFTLTISSLQPDDFATYYCLQWSSYPWTFGGGTKVEIKR	1.81e+10	55.3	6.93e-06	125000	5	3	9.8	18	2.2	–	–
K4D-24 (antibody, V domains shown, Variant of 3C23K with H-Q1R (Kabat)) VH: RVRLVQSGAEVKKPGASVKVSCKASGYTFTSYHIHWVRQAPGQRLEWMGWIYPGDDSTKYSQKFQGRVTITRDTSASTAYMELSSLRSEDTAVYYCTRGDRFAYWGQGTLVTVSS VL: DIQMTQSPSTLSASVGDRVTITCRASSSVRYIAWYQQKPGKAPKLLTYPTSSLKSGVPSRFSGSGSGTEFTLTISSLQPDDFATYYCLQWSSYPWTFGGGTKVEIK	–	–	–	–	–	–	76.8	–	0.098	22	20
6C59 (antibody, V domains shown, Variant of 3C23K with H-Q1R, L-S27P and L-S28P (Kabat)) VH: RVRLVQSGAEVKKPGASVKVSCKASGYTFTSYHIHWVRQAPGQRLEWMGWIYPGDDSTKYSQKFQGRVTITRDTSASTAYMELSSLRSEDTAVYYCTRGDRFAYWGQGTLVTVSS VL: DIQMTQSPSTLSASVGDRVTITCRASPPVRYIAWYQQKPGKAPKLLTYPTSSLKSGVPSRFSGSGSGTEFTLTISSLQPDDFATYYCLQWSSYPWTFGGGTKVEIK	–	–	–	–	–	–	82.2	–	0.05	–	40
